Results on 19 molecules are retold here after publication PMC5610242, “Stapled peptide inhibitors of RAB25 target context-specific phenotypes in cancer” (Nature Communications, 2017).

Bridge positions count the residues as written; N and C are the ends. Square brackets hold non-standard residues; d marks the D form. Ends that are not written are not given here. Peptide text beside a SMILES is read from it. * marks the point of attachment. FITC = O=C1OC2(c3ccc(O)cc3Oc3cc(O)ccc32)c2ccc(NC(=S)*)cc21; Met(O) = CS(=O)CC[C@H](N)C(=O)O; S5 = C=CCCC[C@](C)(N)C(=O)O; Nle = CCCC[C@H](N)C(=O)O; PEG = not defined here; βAla = NCCC(=O)O

The target of experiment [1] is T1, RAB11a (activated Q70L mutant) (Homo sapiens, UniProt P62491, Q70L).
T1 construct: GST-RAB11a (1–173, Q70L mutant) in pGEX5x-1; made in house; host or cells: E. coli BL21
T1 sequence (P62491 1-173 Q70L): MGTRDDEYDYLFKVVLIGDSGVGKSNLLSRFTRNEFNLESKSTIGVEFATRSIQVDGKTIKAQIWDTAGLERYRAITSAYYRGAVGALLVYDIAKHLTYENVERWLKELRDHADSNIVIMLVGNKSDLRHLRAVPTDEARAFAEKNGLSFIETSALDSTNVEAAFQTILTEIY
As to the kind of experiment: Fluorescence polarization binding of FITC-labeled RFP peptides to RAB11a. The settings on record: FP. As to the method: (§1) Fluorescence polarization assays were performed with for GST-RAB25 and GST-RAB11a to quantify binding to FITC-labeled unmodified and stapled RFP peptides. Initial fluorescence polarization measurements for RFP1−RFP13 were made by incubating FITC-RFP peptides (25 nM) with threefold dilutions of a given protein in FP buffer, consisting of 20 mM Tris pH 8.0, 150 mM NaCl, 5 mM MgCl2, 2 mM DTT, 10 μM GTP and 2% glycerol. Dilutions and incubations were performed in 96-well, black flat-bottom plates (Nunc) to a total volume of 100 μL, and equilibrated at room temperature for 30 min. Polarization was measured on a Spetramax-M5 multi-label plate reader (Molecular Devices) with λ ex = 485 nm and λ em = 525 nm. Polarization values were determined using the equation: P = (V − H)/(V + H), where P denotes polarization, V denotes vertical emission intensity and H represents horizontal emission intensity. Fraction bound was calculated using the equilibrium maximum polarization value obtained for a given protein among ligands, to which background-subtracted fluorescence polarization values were internally normalized. Fluorescence polarization measurements for FITC-RFP14, 24, 26, 31, and 32 were performed as detailed above with the exception that 10 nM FITC-ligand was used.
Background: In fluorescence polarisation assays a small probe gives low polarisation when free and higher when bound to something large.

Experiment [2] addresses T2, RAB25 (Homo sapiens, UniProt P57735).
T2 construct: GST-RAB25 (1–180) in pET41 Ek/LIC; made in house; host or cells: E. coli BL21
T2 sequence (P57735 1-180): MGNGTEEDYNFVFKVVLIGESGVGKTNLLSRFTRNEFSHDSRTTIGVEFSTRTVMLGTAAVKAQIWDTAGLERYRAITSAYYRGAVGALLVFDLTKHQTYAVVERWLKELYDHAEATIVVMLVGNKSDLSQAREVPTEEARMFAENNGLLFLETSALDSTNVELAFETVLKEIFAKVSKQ
As to the kind of experiment: Fluorescence polarization binding of FITC-labeled RFP peptides to RAB25. Particulars: FP, 30 min room temperature. As to the method:
as §1

Experiment [3] has as its target T3, GST-RAB11a (1-173, Q70L mutant) (UniProt P62491 1-173, Q70L).
T3 construct: source: E. coli BL21, purified (glutathione sepharose, Superdex 75 gel filtration)
T3 sequence (looked up): T1 sequence (P62491 1-173 Q70L)
As to the kind of experiment: fluorescence polarisation; FITC-peptide 25 nM with threefold dilutions of GST-RAB protein; 20 mM Tris pH 8.0, 150 mM NaCl, 5 mM MgCl2, 2 mM DTT, 10 µM GTP, 2% glycerol; room temperature, 30 min; apparent Kd from a sigmoidal (4-parameter) fit, 95% confidence interval. The settings on record: both partners purified.

For experiment [4], the target named is T4, GST-RAB25 (1-180) (UniProt P57735 1-180).
T4 construct: RAB25, residues 1-180, in pET41 Ek/LIC; source: E. coli BL21, purified (glutathione sepharose, Superdex 75 gel filtration)
T4 sequence (looked up): T2 sequence (P57735 1-180)
The description is as above. Particulars: both partners purified.

Experiment [5] deals with T3, GST-RAB11a (1-173, Q70L mutant). The experiment is described as follows: fluorescence polarisation; as for RFP1-13 but FITC-ligand 10 nM, with threefold dilutions of GST-RAB protein; 20 mM Tris pH 8.0, 150 mM NaCl, 5 mM MgCl2, 2 mM DTT, 10 µM GTP, 2% glycerol; room temperature, 30 min; apparent Kd from a sigmoidal (4-parameter) fit, 95% confidence interval. The settings on record: both partners purified.

Experiment [6] has as its target T4, GST-RAB25 (1-180). The description is as above. Particulars: both partners purified.
For experiment [7], the target named is T5, His6-RAB25 (1–180) (UniProt P57735 1-180).
T5 chain: T2 sequence (P57735 1-180)
As to the kind of experiment: competition with bio-RFP14 (ALPHAscreen). On the technique in general: Alpha assays give light when donor and acceptor beads are brought close together.

Experiment [8] has as its target GST-RAB25 (1-180) (UniProt P57735). The experiment is described as follows: fluorescence polarisation; FITC-peptide 25 nM with threefold dilutions of GST-RAB protein; 20 mM Tris pH 8.0, 150 mM NaCl, 5 mM MgCl2, 2 mM DTT, 10 µM GTP, 2% glycerol; room temperature, 30 min; apparent Kd from a sigmoidal (4-parameter) fit, 95% confidence interval.

As for `CC[C@H](C)[C@H](NC(=O)[C@H](CCCNC(=N)N)NC(=O)[C@H](C)NC(=O)[C@H](C)NC(=O)[C@]1(C)CCCC=CCCC[C@](C)(NC(=O)[C@H](CC(N)=O)NC(=O)[C@H](CCC(N)=O)NC(=O)[C@H](CC(C)C)NC(=O)[C@H](CCCNC(=N)N)NC(=O)[C@H](Cc2ccccc2)NC(=O)[C@H](CC(N)=O)NC(=O)[C@@H](NC(=O)[C@H](CCCNC(=N)N)NC(=O)CCNC(=O)[C@@H](N)Cc2c[nH]c3ccccc23)[C@@H](C)CC)C(=O)N[C@@H]([C@@H](C)CC)C(=O)N[C@@H](CC(=O)O)C(=O)N[C@@H](CCCNC(=N)N)C(=O)N1)C(=O)N[C@@H](C)C(=O)N[C@@H](CCC(=O)O)C(=O)N[C@H](C(=O)N[C@@H](CC(N)=O)C(=O)N1CCC[C@H]1C(=O)N[C@@H](CO)C(=O)N[C@H](C(=O)N[C@@H](CC(C)C)C(=O)N[C@@H](CCCNC(=N)N)C(=O)N[C@H](C(=O)N[C@@H](CCCCN)C(N)=O)C(C)C)[C@@H](C)CC)[C@@H](C)O` [RFP32] (H-W[βAla]RINFRLQN[S5]IDR[S5]AARIAETNPSILRVK-NH2; staple 11-15), the Kd was more than 5000 nM in experiment [1] (10 nM FITC-ligand, GST-RAB11a (1–173, Q70L), FP buffer pH 8.0 with 10 μM GTP, 30 min room temperature, mean with 95% C.I., triplicate, read-out: apparent Kd (95% C.I.) RAB11a) and more than 5000 nM in experiment [2] (10 nM FITC-ligand, GST-RAB25, FP buffer pH 8.0 with 10 μM GTP, mean with 95% C.I., triplicate, read-out: apparent Kd (95% C.I.) RAB25).
As to “RFP5: peptide with oxidation of a methionine involved in binding, a separable byproduct of chemical synthesis ({FITC-PEG}-KQEEINFRLQDYIDRIIVAI[Met(O)]ETNPSILEVK; reading uncertain)”, the “loss of binding affinity for RAB11a on methionine oxidation” value in experiment [1] (relative to non-oxidised peptide) is on record as “~ fivefold”.
Regarding “FIP2: unmodified Class-I peptide encompassing the RAB-binding domain of FIP2, FITC-labeled ({FITC-PEG}-ERDTHIRELEDYIDNLLVRVMEETPSILRVPR; reading uncertain)”, the “binding to RAB11a (in words)” value in experiment [1] (25 nM FITC-RFP peptide, 30 min room temperature) is “essentially no binding”. Also, in experiment [2] (25 nM FITC-RFP peptide), the “binding to RAB25 (in words)” value is “essentially no binding”.
As for {FITC-PEG-βAla}-RINFRLQDYID[S5]IIV[S5]IMETNPSILEVK (staple 12-16; reading uncertain) [FITC-RFP11 (FIP3-derived stapled peptide, 'IIV' staple)], the Kd in experiment [3] was 7 nM; in experiment [4] it was 50 nM.
Turning to {FITC-PEG-βAla}-RQVRELED[S5]IDR[S5]LVRVMEETPNILRIPR (staple 9-13; reading uncertain) [FITC-RFP9 (FIP1-derived stapled peptide, 'IDR' staple)], the Kd in experiment [3] was found to be 2400 nM; in experiment [4], 1200 nM.
For {FITC-PEG-βAla}-RINFRLQDYIDRIIV[S5]IME[S5]NPSILEVK (staple 16-20; reading uncertain) [FITC-RFP12 (FIP3-derived stapled peptide, 'IME' staple)], in that order: 20 nM and 30 nM.
For {FITC-PEG-βAla}-RQVRELEDYID[S5]LLV[S5]VMEETPNILRIPR (staple 12-16; reading uncertain) [FITC-RFP7 (FIP1-derived stapled peptide, 'IIV' staple)] the same measures were 110 nM and 510 nM.

B1: FITC-RFP1 (unmodified FIP1 RAB-binding domain peptide) (peptide)
peptide: {FITC-PEG}-KKEFQVRELEDYIDNLLVRVMEETPNILRIPA
modifications: reading uncertain
notes: also called fRFP1; FIP1 peptide; source: synthetic peptide (Fmoc solid phase, HPLC purified)
On to B1, for which the Kd in experiment [3] and in experiment [4] was more than 5000 nM each time.

B2: FITC-RFP4 (unmodified FIP4 RAB-binding domain peptide) (peptide)
peptide: {FITC-PEG}-EQEEINFRLRQYMDKIILAILDHNPSILEIKH
modifications: reading uncertain
notes: also called fRFP4; FIP4 peptide; source: synthetic peptide (Fmoc solid phase, HPLC purified)
Take B2: the figures for the Kd in experiment [3] and in experiment [4] were 930 nM and 2300 nM, respectively.
For {FITC-PEG-βAla}-RINFRLQN[S5]IDR[S5]IVRIFETNPSILRVK (staple 9-13; reading uncertain) [FITC-RFP24 (optimized stapled peptide, 'IDR' staple)], the Kd in experiment [5] stood at 560 nM; in experiment [6] it was 160 nM.
For the molecule {FITC-PEG-βAla}-RQVRELENYIDRLLV[S5]V[Nle]E[S5]TPNILRIPR (staple 16-20; reading uncertain) [FITC-RFP14 (optimized stapled peptide, 'IME' staple)], in experiment [5], the Kd was 320 nM.
For {FITC-PEG-βAla}-RINFRLQD[S5]IDR[S5]IVAIMETNPSILEVK (staple 9-13; reading uncertain) [FITC-RFP13 (FIP3-derived stapled peptide, 'IDR' staple)], the Kd amounted to 80 nM in experiment [3] and 40 nM in experiment [4].
For {FITC-PEG-βAla}-RQVRELE[S5]YID[S5]LLVRVMEETPNILRIPR (staple 8-12; reading uncertain) [FITC-RFP6 (FIP1-derived stapled peptide, 'YID' staple)] the same measures were more than 5000 nM and more than 5000 nM.
In general, IC50 refers to the midpoint of a concentration-inhibition curve. A high value points to a need for much substance. Take KQEEINFRLQDYIDRIIVAIMETNPSILEVK [FIP3 peptide (residues 726–756)]: in experiment [7], the IC50 was more than 10000 nM.
As for {FITC-PEG-βAla}-RQVRELEDYIDRLLV[S5]VME[S5]TPNILRIPR (staple 16-20; reading uncertain) [FITC-RFP8 (FIP1-derived stapled peptide, 'IME' staple)], the Kd in experiment [3] is 40 nM; in experiment [4], 170 nM.

B3: FITC-RFP2 (unmodified FIP2 RAB-binding domain peptide) (peptide)
peptide: {FITC-PEG}-ERDTHIRELEDYIDNLLVRVMEETPSILRVPR
modifications: reading uncertain
notes: limits worked out from the printed L485, V486 and M489; also called fRFP2; FIP2 peptide; source: synthetic peptide (Fmoc solid phase, HPLC purified)
In the case of B3, the Kd in experiment [3] and in experiment [4] was more than 5000 nM throughout.

B4: FITC-RFP5 (FIP3 RAB-binding domain peptide with oxidised methionine) (peptide)
peptide: {FITC-PEG}-KQEEINFRLQDYIDRIIVAI[Met(O)]ETNPSILEVK
modifications: reading uncertain
notes: also called fRFP5; source: synthetic peptide (separable byproduct of chemical synthesis, HPLC purified)
Regarding B4, the Kd in experiment [8] and in experiment [3] was more than 5000 nM throughout.

B5: FITC-RFP3 (unmodified FIP3 RAB-binding domain peptide) (peptide)
peptide: {FITC-PEG}-KQEEINFRLQDYIDRIIVAIMETNPSILEVK
modifications: reading uncertain
notes: also called fRFP3; FIP3 peptide; source: synthetic peptide (Fmoc solid phase, HPLC purified)
Regarding B5, the Kd in experiment [8] was more than 5000 nM; in experiment [3], 2300 nM.
Regarding {FITC-PEG-βAla}-RINFRLQ[S5]YID[S5]IIVAIMETNPSILEVK (staple 8-12; reading uncertain) [FITC-RFP10 (FIP3-derived stapled peptide, 'YID' staple)], the Kd in experiment [3] and in experiment [4] was more than 5000 nM throughout.
